Laboratory results: patent publication US20210388087A1 (Chugai, published 2021)

Biological target: T1, CD3 epsilon homodimer protein (UniProt P07766 23-126)
T1 construct: also called CD3 (CD3 epsilon)
Assay: SPR Biacore T200, CD3e homodimer on chip, vs unaltered GLS3000 antibody

T1 sequence (P07766 23-126): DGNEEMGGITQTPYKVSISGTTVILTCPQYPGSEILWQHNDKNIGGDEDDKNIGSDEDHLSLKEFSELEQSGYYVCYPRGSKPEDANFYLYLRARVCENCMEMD

| ratio of amounts bound (Z=Y/X) | Binder |
| --- | --- |
| 1.07 | GLS3000 G89I (antibody, name in Kabat numbering, V domains shown, one-arm IgG as m2) VH: QVQLVESGGGVVQPGRSLRLSCAASGFTFSNAWMHWVRQAPGKGLEWVAQIKAKSNNYATYYAESVKGRFTISRDDSKNSLYLQMNSLKTEDTAVYYCRYVHYGAYYGVDAWGQGTTVTVSS VL: DIVMTQSPLSLPVTPGEPASISCRSSQSLVHSNRNTYLHWYQQKPGQAPRLLIYKVSNRFSGVPDRFSGSGSGTDFTLKISRVEAEDVGVYYCIQGTQVPYTFGQGTKLEIK |
| 0.41 | GLS3000 F55T (antibody, name in Kabat numbering, V domains shown, one-arm IgG as m2) VH: QVQLVESGGGVVQPGRSLRLSCAASGFTFSNAWMHWVRQAPGKGLEWVAQIKAKSNNYATYYAESVKGRFTISRDDSKNSLYLQMNSLKTEDTAVYYCRYVHYGAYYGVDAWGQGTTVTVSS VL: DIVMTQSPLSLPVTPGEPASISCRSSQSLVHSNRNTYLHWYQQKPGQAPRLLIYKVSNRTSGVPDRFSGSGSGTDFTLKISRVEAEDVGVYYCGQGTQVPYTFGQGTKLEIK |
| 0.4 | GLS3000 G89K (antibody, name in Kabat numbering, V domains shown, one-arm IgG as m2) VH: QVQLVESGGGVVQPGRSLRLSCAASGFTFSNAWMHWVRQAPGKGLEWVAQIKAKSNNYATYYAESVKGRFTISRDDSKNSLYLQMNSLKTEDTAVYYCRYVHYGAYYGVDAWGQGTTVTVSS VL: DIVMTQSPLSLPVTPGEPASISCRSSQSLVHSNRNTYLHWYQQKPGQAPRLLIYKVSNRFSGVPDRFSGSGSGTDFTLKISRVEAEDVGVYYCKQGTQVPYTFGQGTKLEIK |
| 0.94 | GLS3000 G89L (antibody, name in Kabat numbering, V domains shown, one-arm IgG as m2) VH: QVQLVESGGGVVQPGRSLRLSCAASGFTFSNAWMHWVRQAPGKGLEWVAQIKAKSNNYATYYAESVKGRFTISRDDSKNSLYLQMNSLKTEDTAVYYCRYVHYGAYYGVDAWGQGTTVTVSS VL: DIVMTQSPLSLPVTPGEPASISCRSSQSLVHSNRNTYLHWYQQKPGQAPRLLIYKVSNRFSGVPDRFSGSGSGTDFTLKISRVEAEDVGVYYCLQGTQVPYTFGQGTKLEIK |
| 0.26 | GLS3000 G89E (antibody, name in Kabat numbering, V domains shown, one-arm IgG as m2) VH: QVQLVESGGGVVQPGRSLRLSCAASGFTFSNAWMHWVRQAPGKGLEWVAQIKAKSNNYATYYAESVKGRFTISRDDSKNSLYLQMNSLKTEDTAVYYCRYVHYGAYYGVDAWGQGTTVTVSS VL: DIVMTQSPLSLPVTPGEPASISCRSSQSLVHSNRNTYLHWYQQKPGQAPRLLIYKVSNRFSGVPDRFSGSGSGTDFTLKISRVEAEDVGVYYCEQGTQVPYTFGQGTKLEIK |
| 0.76 | GLS3000 F55L (antibody, name in Kabat numbering, V domains shown, one-arm IgG as m2) VH: QVQLVESGGGVVQPGRSLRLSCAASGFTFSNAWMHWVRQAPGKGLEWVAQIKAKSNNYATYYAESVKGRFTISRDDSKNSLYLQMNSLKTEDTAVYYCRYVHYGAYYGVDAWGQGTTVTVSS VL: DIVMTQSPLSLPVTPGEPASISCRSSQSLVHSNRNTYLHWYQQKPGQAPRLLIYKVSNRLSGVPDRFSGSGSGTDFTLKISRVEAEDVGVYYCGQGTQVPYTFGQGTKLEIK |
| 0.8 | GLS3000 F55M (antibody, name in Kabat numbering, V domains shown, one-arm IgG as m2) VH: QVQLVESGGGVVQPGRSLRLSCAASGFTFSNAWMHWVRQAPGKGLEWVAQIKAKSNNYATYYAESVKGRFTISRDDSKNSLYLQMNSLKTEDTAVYYCRYVHYGAYYGVDAWGQGTTVTVSS VL: DIVMTQSPLSLPVTPGEPASISCRSSQSLVHSNRNTYLHWYQQKPGQAPRLLIYKVSNRMSGVPDRFSGSGSGTDFTLKISRVEAEDVGVYYCGQGTQVPYTFGQGTKLEIK |

Further lines, the binder ahead of its results:

| Binder | ratio of amounts bound (Z=Y/X) |
| --- | --- |
| GLS3000 F55K (antibody, name in Kabat numbering, V domains shown, one-arm IgG as m2) VH: QVQLVESGGGVVQPGRSLRLSCAASGFTFSNAWMHWVRQAPGKGLEWVAQIKAKSNNYATYYAESVKGRFTISRDDSKNSLYLQMNSLKTEDTAVYYCRYVHYGAYYGVDAWGQGTTVTVSS VL: DIVMTQSPLSLPVTPGEPASISCRSSQSLVHSNRNTYLHWYQQKPGQAPRLLIYKVSNRKSGVPDRFSGSGSGTDFTLKISRVEAEDVGVYYCGQGTQVPYTFGQGTKLEIK | 1.33 |
| GLS3000 F55S (antibody, name in Kabat numbering, V domains shown, one-arm IgG as m2) VH: QVQLVESGGGVVQPGRSLRLSCAASGFTFSNAWMHWVRQAPGKGLEWVAQIKAKSNNYATYYAESVKGRFTISRDDSKNSLYLQMNSLKTEDTAVYYCRYVHYGAYYGVDAWGQGTTVTVSS VL: DIVMTQSPLSLPVTPGEPASISCRSSQSLVHSNRNTYLHWYQQKPGQAPRLLIYKVSNRSSGVPDRFSGSGSGTDFTLKISRVEAEDVGVYYCGQGTQVPYTFGQGTKLEIK | 0.69 |
| GLS3000 F55Y (antibody, name in Kabat numbering, V domains shown, one-arm IgG as m2) VH: QVQLVESGGGVVQPGRSLRLSCAASGFTFSNAWMHWVRQAPGKGLEWVAQIKAKSNNYATYYAESVKGRFTISRDDSKNSLYLQMNSLKTEDTAVYYCRYVHYGAYYGVDAWGQGTTVTVSS VL: DIVMTQSPLSLPVTPGEPASISCRSSQSLVHSNRNTYLHWYQQKPGQAPRLLIYKVSNRYSGVPDRFSGSGSGTDFTLKISRVEAEDVGVYYCGQGTQVPYTFGQGTKLEIK | 0.92 |
| GLS3000 F55W (antibody, name in Kabat numbering, V domains shown, one-arm IgG as m2) VH: QVQLVESGGGVVQPGRSLRLSCAASGFTFSNAWMHWVRQAPGKGLEWVAQIKAKSNNYATYYAESVKGRFTISRDDSKNSLYLQMNSLKTEDTAVYYCRYVHYGAYYGVDAWGQGTTVTVSS VL: DIVMTQSPLSLPVTPGEPASISCRSSQSLVHSNRNTYLHWYQQKPGQAPRLLIYKVSNRWSGVPDRFSGSGSGTDFTLKISRVEAEDVGVYYCGQGTQVPYTFGQGTKLEIK | 0.69 |
| GLS3000 G89M (antibody, name in Kabat numbering, V domains shown, one-arm IgG as m2) VH: QVQLVESGGGVVQPGRSLRLSCAASGFTFSNAWMHWVRQAPGKGLEWVAQIKAKSNNYATYYAESVKGRFTISRDDSKNSLYLQMNSLKTEDTAVYYCRYVHYGAYYGVDAWGQGTTVTVSS VL: DIVMTQSPLSLPVTPGEPASISCRSSQSLVHSNRNTYLHWYQQKPGQAPRLLIYKVSNRFSGVPDRFSGSGSGTDFTLKISRVEAEDVGVYYCMQGTQVPYTFGQGTKLEIK | 0.52 |
| GLS3000 F55V (antibody, name in Kabat numbering, V domains shown, one-arm IgG as m2) VH: QVQLVESGGGVVQPGRSLRLSCAASGFTFSNAWMHWVRQAPGKGLEWVAQIKAKSNNYATYYAESVKGRFTISRDDSKNSLYLQMNSLKTEDTAVYYCRYVHYGAYYGVDAWGQGTTVTVSS VL: DIVMTQSPLSLPVTPGEPASISCRSSQSLVHSNRNTYLHWYQQKPGQAPRLLIYKVSNRVSGVPDRFSGSGSGTDFTLKISRVEAEDVGVYYCGQGTQVPYTFGQGTKLEIK | 0.71 |
| GLS3000 G89H (antibody, name in Kabat numbering, V domains shown, one-arm IgG as m2) VH: QVQLVESGGGVVQPGRSLRLSCAASGFTFSNAWMHWVRQAPGKGLEWVAQIKAKSNNYATYYAESVKGRFTISRDDSKNSLYLQMNSLKTEDTAVYYCRYVHYGAYYGVDAWGQGTTVTVSS VL: DIVMTQSPLSLPVTPGEPASISCRSSQSLVHSNRNTYLHWYQQKPGQAPRLLIYKVSNRFSGVPDRFSGSGSGTDFTLKISRVEAEDVGVYYCHQGTQVPYTFGQGTKLEIK | 0.7 |
| GLS3000 F55N (antibody, name in Kabat numbering, V domains shown, one-arm IgG as m2) VH: QVQLVESGGGVVQPGRSLRLSCAASGFTFSNAWMHWVRQAPGKGLEWVAQIKAKSNNYATYYAESVKGRFTISRDDSKNSLYLQMNSLKTEDTAVYYCRYVHYGAYYGVDAWGQGTTVTVSS VL: DIVMTQSPLSLPVTPGEPASISCRSSQSLVHSNRNTYLHWYQQKPGQAPRLLIYKVSNRNSGVPDRFSGSGSGTDFTLKISRVEAEDVGVYYCGQGTQVPYTFGQGTKLEIK | 0.98 |
| GLS3000 G89D (antibody, name in Kabat numbering, V domains shown, one-arm IgG as m2) VH: QVQLVESGGGVVQPGRSLRLSCAASGFTFSNAWMHWVRQAPGKGLEWVAQIKAKSNNYATYYAESVKGRFTISRDDSKNSLYLQMNSLKTEDTAVYYCRYVHYGAYYGVDAWGQGTTVTVSS VL: DIVMTQSPLSLPVTPGEPASISCRSSQSLVHSNRNTYLHWYQQKPGQAPRLLIYKVSNRFSGVPDRFSGSGSGTDFTLKISRVEAEDVGVYYCDQGTQVPYTFGQGTKLEIK | 0.33 |
| GLS3000 F55Q (antibody, name in Kabat numbering, V domains shown, one-arm IgG as m2) VH: QVQLVESGGGVVQPGRSLRLSCAASGFTFSNAWMHWVRQAPGKGLEWVAQIKAKSNNYATYYAESVKGRFTISRDDSKNSLYLQMNSLKTEDTAVYYCRYVHYGAYYGVDAWGQGTTVTVSS VL: DIVMTQSPLSLPVTPGEPASISCRSSQSLVHSNRNTYLHWYQQKPGQAPRLLIYKVSNRQSGVPDRFSGSGSGTDFTLKISRVEAEDVGVYYCGQGTQVPYTFGQGTKLEIK | 0.91 |
| GLS3000 F55R (antibody, name in Kabat numbering, V domains shown, one-arm IgG as m2) VH: QVQLVESGGGVVQPGRSLRLSCAASGFTFSNAWMHWVRQAPGKGLEWVAQIKAKSNNYATYYAESVKGRFTISRDDSKNSLYLQMNSLKTEDTAVYYCRYVHYGAYYGVDAWGQGTTVTVSS VL: DIVMTQSPLSLPVTPGEPASISCRSSQSLVHSNRNTYLHWYQQKPGQAPRLLIYKVSNRRSGVPDRFSGSGSGTDFTLKISRVEAEDVGVYYCGQGTQVPYTFGQGTKLEIK | 1.31 |
| GLS3000 G89F (antibody, name in Kabat numbering, V domains shown, one-arm IgG as m2) VH: QVQLVESGGGVVQPGRSLRLSCAASGFTFSNAWMHWVRQAPGKGLEWVAQIKAKSNNYATYYAESVKGRFTISRDDSKNSLYLQMNSLKTEDTAVYYCRYVHYGAYYGVDAWGQGTTVTVSS VL: DIVMTQSPLSLPVTPGEPASISCRSSQSLVHSNRNTYLHWYQQKPGQAPRLLIYKVSNRFSGVPDRFSGSGSGTDFTLKISRVEAEDVGVYYCFQGTQVPYTFGQGTKLEIK | 1.09 |
| GLS3000 G89A (antibody, name in Kabat numbering, V domains shown, one-arm IgG as m2) VH: QVQLVESGGGVVQPGRSLRLSCAASGFTFSNAWMHWVRQAPGKGLEWVAQIKAKSNNYATYYAESVKGRFTISRDDSKNSLYLQMNSLKTEDTAVYYCRYVHYGAYYGVDAWGQGTTVTVSS VL: DIVMTQSPLSLPVTPGEPASISCRSSQSLVHSNRNTYLHWYQQKPGQAPRLLIYKVSNRFSGVPDRFSGSGSGTDFTLKISRVEAEDVGVYYCAQGTQVPYTFGQGTKLEIK | 1.13 |
| GLS3000 F55P (antibody, name in Kabat numbering, V domains shown, one-arm IgG as m2) VH: QVQLVESGGGVVQPGRSLRLSCAASGFTFSNAWMHWVRQAPGKGLEWVAQIKAKSNNYATYYAESVKGRFTISRDDSKNSLYLQMNSLKTEDTAVYYCRYVHYGAYYGVDAWGQGTTVTVSS VL: DIVMTQSPLSLPVTPGEPASISCRSSQSLVHSNRNTYLHWYQQKPGQAPRLLIYKVSNRPSGVPDRFSGSGSGTDFTLKISRVEAEDVGVYYCGQGTQVPYTFGQGTKLEIK | 1.16 |
